Numbered stars: 1 amine (or outer) side, 2 acyl side, 3 side chain; on linkers, the order of the positions; unused ones are H or OH. Bridge positions count the residues as written; N and C are the ends. Side chains are listed from the residue outwards. Ends that are not written are not given here. * marks the point of attachment. C20 diacid = O=C(O)CCCCCCCCCCCCCCCCCCC(=O)*; γGlu = O=C(O)[C@H](CCC(=O)[*:2])N[*:1]
Tests used:
[1] = target: T1, human amylin receptor (amylin 3(a) receptor: human calcitonin receptor plus RAMP-3) (human, UniProt P30988 25-474; O60896 24-148); experiment: SPA competition binding, displacement of 125I-rat amylin, membranes of BHK amylin 3(a)/CRE-luc cells
T1 construct: whole, on cells; functional assay (II)a used the whole cells; also called hAmylin-R; hAmylinR
T1 sequence (looked up) 1: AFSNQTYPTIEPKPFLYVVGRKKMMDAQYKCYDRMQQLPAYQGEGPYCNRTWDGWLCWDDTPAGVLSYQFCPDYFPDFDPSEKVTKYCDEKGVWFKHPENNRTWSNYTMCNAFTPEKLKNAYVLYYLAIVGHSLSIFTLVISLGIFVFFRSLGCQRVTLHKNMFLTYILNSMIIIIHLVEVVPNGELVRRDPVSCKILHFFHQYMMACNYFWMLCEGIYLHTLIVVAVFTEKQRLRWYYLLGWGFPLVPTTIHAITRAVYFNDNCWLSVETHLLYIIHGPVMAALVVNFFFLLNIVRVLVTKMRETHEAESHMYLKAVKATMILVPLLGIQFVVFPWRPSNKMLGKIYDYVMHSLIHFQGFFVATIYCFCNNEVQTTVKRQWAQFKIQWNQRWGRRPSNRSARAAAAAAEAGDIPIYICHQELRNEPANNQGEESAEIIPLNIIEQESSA
T1 sequence (looked up) 2: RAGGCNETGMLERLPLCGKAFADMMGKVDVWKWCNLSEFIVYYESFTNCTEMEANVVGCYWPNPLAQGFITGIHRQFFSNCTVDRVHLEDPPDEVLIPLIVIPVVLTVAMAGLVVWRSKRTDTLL
Method in brief: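 One-site competition analysis of SPA counts yielded IC₅₀ as a measure of affinity. Membranes were at 35 ng/μL final; incubation was 120 min at 25° C, pH 7.4.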

[2] = target: T2, human calcitonin receptor (human, UniProt P30988 25-474); experiment: cell-based or functional assay
T2 sequence (looked up): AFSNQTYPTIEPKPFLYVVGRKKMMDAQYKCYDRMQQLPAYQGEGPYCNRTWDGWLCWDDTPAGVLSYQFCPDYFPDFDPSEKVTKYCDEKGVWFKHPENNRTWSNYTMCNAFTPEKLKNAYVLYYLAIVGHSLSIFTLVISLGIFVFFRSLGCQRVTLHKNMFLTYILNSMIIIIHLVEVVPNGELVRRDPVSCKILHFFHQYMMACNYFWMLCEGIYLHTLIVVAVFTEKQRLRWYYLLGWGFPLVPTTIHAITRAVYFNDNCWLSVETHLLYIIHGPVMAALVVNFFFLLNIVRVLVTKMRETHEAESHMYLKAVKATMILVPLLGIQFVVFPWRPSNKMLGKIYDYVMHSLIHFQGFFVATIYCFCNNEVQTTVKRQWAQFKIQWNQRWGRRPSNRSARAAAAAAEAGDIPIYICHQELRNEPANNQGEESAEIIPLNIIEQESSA

[3] = target: T1, human amylin receptor (amylin 3(a) …); experiment: cell-based or functional assay

Binder | IC50 [1] | hCTR funct. EC50 (pM) [2] | Ratio hCT/hAmylin funct. [3] | hAmylin-R funct. EC50 (pM) [3]
K([γGlu-C20 diacid])RCNTATCATQRLANFLRHSSPNFGAIPSSTNVGSHTY-NH2 (disulfide 3-8; N-terminus assumed; SMILES CC[C@H](C)[C@H](NC(=O)[C@H](C)NC(=O)CNC(=O)[C@H](Cc1ccccc1)NC(=O)[C@H](CC(N)=O)NC(=O)[C@@H]1CCCN1C(=O)[C@H](CO)NC(=O)[C@H](CO)NC(=O)[C@H](Cc1c[nH]cn1)NC(=O)[C@H](CCCNC(=N)N)NC(=O)[C@H](CC(C)C)NC(=O)[C@H](Cc1ccccc1)NC(=O)[C@H](CC(N)=O)NC(=O)[C@H](C)NC(=O)[C@H](CC(C)C)NC(=O)[C@H](CCCNC(=N)N)NC(=O)[C@H](CCC(N)=O)NC(=O)[C@@H](NC(=O)[C@H](C)NC(=O)[C@@H]1CSSC[C@H](NC(=O)[C@H](CCCNC(=N)N)NC(=O)[C@@H](N)CCCCNC(=O)CC[C@H](NC(=O)CCCCCCCCCCCCCCCCCCC(=O)O)C(=O)O)C(=O)N[C@@H](CC(N)=O)C(=O)N[C@@H]([C@@H](C)O)C(=O)N[C@@H](C)C(=O)N[C@@H]([C@@H](C)O)C(=O)N1)[C@@H](C)O)C(=O)N1CCC[C@H]1C(=O)N[C@@H](CO)C(=O)N[C@@H](CO)C(=O)N[C@H](C(=O)N[C@@H](CC(N)=O)C(=O)N[C@H](C(=O)NCC(=O)N[C@@H](CO)C(=O)N[C@@H](Cc1c[nH]cn1)C(=O)N[C@H](C(=O)N[C@@H](Cc1ccc(O)cc1)C(N)=O)[C@@H](C)O)C(C)C)[C@@H](C)O, also called compound 44) | 0.275 nM | 4750 pM | 24 | 198 pM
{C20 diacid-γGlu}-GRCNTATCATQRLANFLRHSSPNFGAIPSSTNVGSHTY-NH2 (disulfide 3-8; SMILES CC[C@H](C)[C@H](NC(=O)[C@H](C)NC(=O)CNC(=O)[C@H](Cc1ccccc1)NC(=O)[C@H](CC(N)=O)NC(=O)[C@@H]1CCCN1C(=O)[C@H](CO)NC(=O)[C@H](CO)NC(=O)[C@H](Cc1c[nH]cn1)NC(=O)[C@H](CCCNC(=N)N)NC(=O)[C@H](CC(C)C)NC(=O)[C@H](Cc1ccccc1)NC(=O)[C@H](CC(N)=O)NC(=O)[C@H](C)NC(=O)[C@H](CC(C)C)NC(=O)[C@H](CCCNC(=N)N)NC(=O)[C@H](CCC(N)=O)NC(=O)[C@@H](NC(=O)[C@H](C)NC(=O)[C@@H]1CSSC[C@H](NC(=O)[C@H](CCCNC(=N)N)NC(=O)CNC(=O)CC[C@H](NC(=O)CCCCCCCCCCCCCCCCCCC(=O)O)C(=O)O)C(=O)N[C@@H](CC(N)=O)C(=O)N[C@@H]([C@@H](C)O)C(=O)N[C@@H](C)C(=O)N[C@@H]([C@@H](C)O)C(=O)N1)[C@@H](C)O)C(=O)N1CCC[C@H]1C(=O)N[C@@H](CO)C(=O)N[C@@H](CO)C(=O)N[C@H](C(=O)N[C@@H](CC(N)=O)C(=O)N[C@H](C(=O)NCC(=O)N[C@@H](CO)C(=O)N[C@@H](Cc1c[nH]cn1)C(=O)N[C@H](C(=O)N[C@@H](Cc1ccc(O)cc1)C(N)=O)[C@@H](C)O)C(C)C)[C@@H](C)O, also called compound 47) | 0.344 nM | 1320 pM | 6 | 222 pM
K([γGlu-γGlu-C20 diacid])CNTATCATQRLAEFLRHSSPNFGAIPSSTNVGPETY-NH2 (disulfide 2-7; N-terminus assumed; SMILES CC[C@H](C)[C@H](NC(=O)[C@H](C)NC(=O)CNC(=O)[C@H](Cc1ccccc1)NC(=O)[C@H](CC(N)=O)NC(=O)[C@@H]1CCCN1C(=O)[C@H](CO)NC(=O)[C@H](CO)NC(=O)[C@H](Cc1c[nH]cn1)NC(=O)[C@H](CCCNC(=N)N)NC(=O)[C@H](CC(C)C)NC(=O)[C@H](Cc1ccccc1)NC(=O)[C@H](CCC(=O)O)NC(=O)[C@H](C)NC(=O)[C@H](CC(C)C)NC(=O)[C@H](CCCNC(=N)N)NC(=O)[C@H](CCC(N)=O)NC(=O)[C@@H](NC(=O)[C@H](C)NC(=O)[C@@H]1CSSC[C@H](NC(=O)[C@@H](N)CCCCNC(=O)CC[C@H](NC(=O)CC[C@H](NC(=O)CCCCCCCCCCCCCCCCCCC(=O)O)C(=O)O)C(=O)O)C(=O)N[C@@H](CC(N)=O)C(=O)N[C@@H]([C@@H](C)O)C(=O)N[C@@H](C)C(=O)N[C@@H]([C@@H](C)O)C(=O)N1)[C@@H](C)O)C(=O)N1CCC[C@H]1C(=O)N[C@@H](CO)C(=O)N[C@@H](CO)C(=O)N[C@H](C(=O)N[C@@H](CC(N)=O)C(=O)N[C@H](C(=O)NCC(=O)N1CCC[C@H]1C(=O)N[C@@H](CCC(=O)O)C(=O)N[C@H](C(=O)N[C@@H](Cc1ccc(O)cc1)C(N)=O)[C@@H](C)O)C(C)C)[C@@H](C)O) | 0.121 nM | 2360 pM |  | 225 pM
K([γGlu-γGlu-C20 diacid])CNTATCATQRLAEFLRHSSNNPGAILSSTNVGPETY-NH2 (disulfide 2-7; N-terminus assumed; SMILES CC[C@H](C)[C@H](NC(=O)[C@H](C)NC(=O)CNC(=O)[C@@H]1CCCN1C(=O)[C@H](CC(N)=O)NC(=O)[C@H](CC(N)=O)NC(=O)[C@H](CO)NC(=O)[C@H](CO)NC(=O)[C@H](Cc1c[nH]cn1)NC(=O)[C@H](CCCNC(=N)N)NC(=O)[C@H](CC(C)C)NC(=O)[C@H](Cc1ccccc1)NC(=O)[C@H](CCC(=O)O)NC(=O)[C@H](C)NC(=O)[C@H](CC(C)C)NC(=O)[C@H](CCCNC(=N)N)NC(=O)[C@H](CCC(N)=O)NC(=O)[C@@H](NC(=O)[C@H](C)NC(=O)[C@@H]1CSSC[C@H](NC(=O)[C@@H](N)CCCCNC(=O)CC[C@H](NC(=O)CC[C@H](NC(=O)CCCCCCCCCCCCCCCCCCC(=O)O)C(=O)O)C(=O)O)C(=O)N[C@@H](CC(N)=O)C(=O)N[C@@H]([C@@H](C)O)C(=O)N[C@@H](C)C(=O)N[C@@H]([C@@H](C)O)C(=O)N1)[C@@H](C)O)C(=O)N[C@@H](CC(C)C)C(=O)N[C@@H](CO)C(=O)N[C@@H](CO)C(=O)N[C@H](C(=O)N[C@@H](CC(N)=O)C(=O)N[C@H](C(=O)NCC(=O)N1CCC[C@H]1C(=O)N[C@@H](CCC(=O)O)C(=O)N[C@H](C(=O)N[C@@H](Cc1ccc(O)cc1)C(N)=O)[C@@H](C)O)C(C)C)[C@@H](C)O) | 1.19 nM | 89600 pM |  | 5170 pM
K([γGlu-γGlu-C20 diacid])CNTATCATQRLASFLRHSSPNFGAIPSSTNVGPETY-NH2 (disulfide 2-7; N-terminus assumed; SMILES CC[C@H](C)[C@H](NC(=O)[C@H](C)NC(=O)CNC(=O)[C@H](Cc1ccccc1)NC(=O)[C@H](CC(N)=O)NC(=O)[C@@H]1CCCN1C(=O)[C@H](CO)NC(=O)[C@H](CO)NC(=O)[C@H](Cc1c[nH]cn1)NC(=O)[C@H](CCCNC(=N)N)NC(=O)[C@H](CC(C)C)NC(=O)[C@H](Cc1ccccc1)NC(=O)[C@H](CO)NC(=O)[C@H](C)NC(=O)[C@H](CC(C)C)NC(=O)[C@H](CCCNC(=N)N)NC(=O)[C@H](CCC(N)=O)NC(=O)[C@@H](NC(=O)[C@H](C)NC(=O)[C@@H]1CSSC[C@H](NC(=O)[C@@H](N)CCCCNC(=O)CC[C@H](NC(=O)CC[C@H](NC(=O)CCCCCCCCCCCCCCCCCCC(=O)O)C(=O)O)C(=O)O)C(=O)N[C@@H](CC(N)=O)C(=O)N[C@@H]([C@@H](C)O)C(=O)N[C@@H](C)C(=O)N[C@@H]([C@@H](C)O)C(=O)N1)[C@@H](C)O)C(=O)N1CCC[C@H]1C(=O)N[C@@H](CO)C(=O)N[C@@H](CO)C(=O)N[C@H](C(=O)N[C@@H](CC(N)=O)C(=O)N[C@H](C(=O)NCC(=O)N1CCC[C@H]1C(=O)N[C@@H](CCC(=O)O)C(=O)N[C@H](C(=O)N[C@@H](Cc1ccc(O)cc1)C(N)=O)[C@@H](C)O)C(C)C)[C@@H](C)O, also called compound 120) | 0.076 nM | 887 pM | 8.1 | 109 pM
K([γGlu-γGlu-C20 diacid])CNTATCATQRLAEFLRHSSPNFGAILSSTPVGPETY-NH2 (disulfide 2-7 (inferred)) | 0.069 nM | 1280 pM | 5.8 | 222 pM
K([γGlu-γGlu-C20 diacid])CNTATCATQRLAEFLRHSSPNFGAIPSSTNVGPHTY-NH2 (disulfide 2-7 (inferred)) | 0.377 nM | 2830 pM |  | 172 pM

Reference: patent US20140087995A1 (published 2014)
